These results are taken from patent publication US20240261333A1 (published 2024).

The target in experiment [1] is T1, EIF5B (human, UniProt O60841 1-1220).
T1 construct: also called NP_056988.3
T1 sequence (looked up): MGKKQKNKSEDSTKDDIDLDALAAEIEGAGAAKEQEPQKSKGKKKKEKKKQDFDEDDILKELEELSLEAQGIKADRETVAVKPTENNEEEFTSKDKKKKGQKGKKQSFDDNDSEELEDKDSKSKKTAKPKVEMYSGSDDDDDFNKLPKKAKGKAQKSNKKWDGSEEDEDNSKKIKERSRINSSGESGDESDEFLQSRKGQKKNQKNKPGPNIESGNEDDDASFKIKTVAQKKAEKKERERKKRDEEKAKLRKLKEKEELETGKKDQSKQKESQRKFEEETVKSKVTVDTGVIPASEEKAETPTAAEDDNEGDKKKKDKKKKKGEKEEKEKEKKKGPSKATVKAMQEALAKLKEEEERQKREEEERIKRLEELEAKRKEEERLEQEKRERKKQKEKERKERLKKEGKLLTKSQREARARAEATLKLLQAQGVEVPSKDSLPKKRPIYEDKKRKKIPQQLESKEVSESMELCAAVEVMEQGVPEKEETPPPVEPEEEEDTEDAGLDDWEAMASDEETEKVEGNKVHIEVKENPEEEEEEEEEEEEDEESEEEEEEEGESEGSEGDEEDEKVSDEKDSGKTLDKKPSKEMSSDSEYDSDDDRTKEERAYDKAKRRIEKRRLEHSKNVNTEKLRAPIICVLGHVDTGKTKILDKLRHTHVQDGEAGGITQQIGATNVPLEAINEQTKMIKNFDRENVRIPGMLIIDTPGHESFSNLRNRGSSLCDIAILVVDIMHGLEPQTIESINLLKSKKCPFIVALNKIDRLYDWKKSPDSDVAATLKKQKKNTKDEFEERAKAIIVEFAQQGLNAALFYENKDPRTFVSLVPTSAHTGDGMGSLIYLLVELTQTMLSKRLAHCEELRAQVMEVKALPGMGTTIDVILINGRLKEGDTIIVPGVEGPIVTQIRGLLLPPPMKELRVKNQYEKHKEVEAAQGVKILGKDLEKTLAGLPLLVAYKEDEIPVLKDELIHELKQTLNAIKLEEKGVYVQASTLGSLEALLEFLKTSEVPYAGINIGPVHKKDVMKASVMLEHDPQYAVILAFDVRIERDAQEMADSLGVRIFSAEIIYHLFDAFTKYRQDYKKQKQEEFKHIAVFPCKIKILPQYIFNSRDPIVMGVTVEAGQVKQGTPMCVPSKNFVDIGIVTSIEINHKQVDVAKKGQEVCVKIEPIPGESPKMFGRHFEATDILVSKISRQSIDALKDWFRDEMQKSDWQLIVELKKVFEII
Briefly: co-IP, anti-FLAG, lysate of cells with N-FLAG B3GNT2; mass spectrometry. As to the method:
(§1) Cells were plated in 10-cm cell culture dishes and grown to 60-80% confluency. For each condition, two biological replicates were harvested for co-IP. Cells were washed with PBS and 4 mL of lysis buffer (20 mM HEPES, 1% Triton X-100, 150 mM NaCl, 1 mM EDTA, and 10% glycerol) containing protease inhibitor cocktail was added. Cells were scraped and lysate was incubated at 4° C. under rotary agitation for 1 h. Lysate was centrifuged at 14,000×g for 10 min at 4° C. Supernatant was transferred to a new tube and an aliquot was taken as the input. […] For Western blots, 10 μg/mL Chicken Anti-FLAG (Aves labs ET-DY100) and IgY control (R&D Systems AB-101-C) antibodies were biotinylated (Thermo Fisher Scientific 90407) and added to the respective conditions. Lysates with antibodies were incubated at 4° C. under rotary agitation overnight. For each mL of lysate, 50 μL of Pierce Protein A/G Magnetic Beads (Mass spectrometry; Thermo Fisher Scientific 88803) or Pierce Streptavidin Magnetic Beads (Western blot; Thermo Fisher Scientific 88817) was washed twice with lysis buffer. Lysates with antibodies were added to the beads and incubated at 4° C. under rotary agitation for 4 h. Beads were washed with lysis buffer 3 times and resuspended in lysis buffer for storage.
(§2) Magnetic beads were resuspended in 100 mM Tris pH 7.8, reduced, alkylated and digested with trypsin at 37° ° C. overnight. This solution was subjected to solid phase extraction to concentrate the peptides and remove unwanted reagents followed by injection onto a Shimadzu HPLC with fraction collector. Eight fractions were collected and after concentration were injected on a Waters NanoAcquity HPLC equipped with a self-packed Aeris 3 μm C18 analytical column 0.075 mm by 20 cm, (Phenomenex). Peptides were eluted using standard reverse-phase gradients. The effluent from the column was analyzed using a Thermo Orbitrap Elite mass spectrometer (nanospray configuration) operated in a data dependent manner for 54 minutes. The resulting fragmentation spectra were correlated against the known database using Proteome Discover 1.4 (Thermo Fisher Scientific).

For experiment [2], the target named is T2, PRBP1 (human, UniProt P26599 1-557).
T2 construct: Label 'PRBP1' is probably a misprint of PTBP1; also called NP_002810.1 (+4)
T2 sequence (P26599 whole entry): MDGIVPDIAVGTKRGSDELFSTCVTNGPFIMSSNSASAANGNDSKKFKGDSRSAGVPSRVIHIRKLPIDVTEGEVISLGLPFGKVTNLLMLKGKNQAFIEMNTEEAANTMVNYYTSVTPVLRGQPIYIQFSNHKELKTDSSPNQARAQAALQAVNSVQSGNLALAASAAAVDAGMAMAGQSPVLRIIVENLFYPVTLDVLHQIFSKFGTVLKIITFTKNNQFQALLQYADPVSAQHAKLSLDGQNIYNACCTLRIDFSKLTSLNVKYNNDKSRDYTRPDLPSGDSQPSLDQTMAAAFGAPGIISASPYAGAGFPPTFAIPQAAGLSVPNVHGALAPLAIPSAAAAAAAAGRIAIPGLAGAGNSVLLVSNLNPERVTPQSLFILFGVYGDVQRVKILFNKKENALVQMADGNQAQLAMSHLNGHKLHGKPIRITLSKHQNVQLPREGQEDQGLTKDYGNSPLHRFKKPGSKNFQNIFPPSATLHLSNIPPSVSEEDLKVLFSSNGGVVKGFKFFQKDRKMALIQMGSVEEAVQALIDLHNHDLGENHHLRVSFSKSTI
The description is as above. The protocol: as §1, §2

B1: N-terminal FLAG tagged B3GNT2 (enzyme, human, UniProt Q9NY97 1-397, looked up)
chain: MSVGRRRIKLLGILMMANVFIYFIMEVSKSSSQEKNGKGEVIIPKEKFWKISTPPEAYWNREQEKLNRQYNPILSMLTNQTGEAGRLSNISHLNYCEPDLRVTSVVTGFNNLPDRFKDFLLYLRCRNYSLLIDQPDKCAKKPFLLLAIKSLTPHFARRQAIRESWGQESNAGNQTVVRVFLLGQTPPEDNHPDLSDMLKFESEKHQDILMWNYRDTFFNLSLKEVLFLRWVSTSCPDTEFVFKGDDDVFVNTHHILNYLNSLSKTKAKDLFIGDVIHNAGPHRDKKLKYYIPEVVYSGLYPPYAGGGGFLYSGHLALRLYHITDQVHLYPIDDVYTGMCLQKLGLVPEKHKGFRTFDIEEKNKNNICSYVDLMLVHSRKPQEMIDIWSQLQSAHLKC
notes: Overexpressed in cells and pulled down from the lysate with mouse anti-FLAG antibody; also called N-FLAG B3GNT2; N-term FLAG; not shown: N-terminal FLAG tag
For the molecule B1, the “co-IP mass spectrometry count” value in experiment [1] turned out to be 0; in experiment [2], 6.
